Experimental data reported in patent US20230080534A1, “SEMG2 ANTIBODY AND USE THEREOF” (SHANGHAI BIOTROY BIOTECHNIQUE CO., LTD., priority 2020, published 2023).

What was measured:
[1] = biological target: T1, SEMG2(497-509) fragment (Homo sapiens, UniProt Q02383); experiment: ELISA binding of antibodies to SEMG2(497-509) epitope
T1 construct: SEMG2(497-509) fragment and SEMG2(563-574) fragment were immobilized on the ELISA plate; made in house; host or cells: chemical synthesis
Experimental: Specifically, SEMG2 full-length protein (1-582), SEMG2(354-403) fragment, SEMG2(442-453) fragment, SEMG2(497-509) fragment and SEMG2(563-574) fragment were immobilized on the ELISA plate, and the same concentration of antibodies (MM02, MM05, MM07, MM08, MM13, MM14, HPA042767 and HPA042835) were added. Anti-mouse or anti-rabbit secondary antibodies were then used to detect the corresponding bound antibodies. MM02, MM05, MM07, MM08, MM13, and MM14 all bound to SEMG2(497509) epitope, HPA042767 bound to SEMG2 (354-403) epitope, and HPA042835 bound to […], while none of the antibodies bound to SEMG2 (442-453) control fragment.
Specifically, the preparation of polypeptide antigens and the screening of human natural antibody library were firstly performed. The SEMG2(497-509) polypeptide was synthesized and coupled to BSA and KLH, respectively, and screened in a fully human phage display antibody library. ELISA was used to select clones that bind to antigenic epitopes for preliminary screening. Different unique sequences were obtained after sequencing single colonies, sorted according to affinity sorting, and full-length antibodies were constructed from antigen-binding fragments (Fab) with relatively high affinity. The binding ability and blocking function tests were performed after purification, that is, the effect of the antibody on binding between SEMG2 and CD27 was determined by the ELISA experiment.

[2] = biological target: T2, SEMG2 (Homo sapiens, UniProt Q02383); experiment: Competition ELISA of fully human antibody with murine antibodies for SEMG2; format: binding; conditions: concentration gradient of fully human antibody mixed with murine antibody
T2 sequence (Q02383 24-582): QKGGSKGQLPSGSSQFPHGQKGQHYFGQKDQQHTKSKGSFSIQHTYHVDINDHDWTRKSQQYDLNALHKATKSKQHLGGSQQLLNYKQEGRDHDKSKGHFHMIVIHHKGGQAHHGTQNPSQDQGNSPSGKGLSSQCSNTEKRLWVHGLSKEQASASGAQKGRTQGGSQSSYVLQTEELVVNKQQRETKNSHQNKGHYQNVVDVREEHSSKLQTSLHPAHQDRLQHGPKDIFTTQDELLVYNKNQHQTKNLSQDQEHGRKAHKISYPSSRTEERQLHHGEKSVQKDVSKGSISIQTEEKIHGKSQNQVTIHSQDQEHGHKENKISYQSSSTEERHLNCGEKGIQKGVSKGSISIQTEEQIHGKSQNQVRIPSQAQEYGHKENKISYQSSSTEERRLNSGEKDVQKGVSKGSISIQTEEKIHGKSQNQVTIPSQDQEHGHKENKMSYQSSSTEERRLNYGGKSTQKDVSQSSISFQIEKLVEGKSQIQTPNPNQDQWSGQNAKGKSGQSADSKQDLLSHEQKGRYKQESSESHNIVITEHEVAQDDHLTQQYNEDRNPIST
Experimental: The binding abilities of fully human antibodies and murine antibodies to SEMG2 were tested, that is, murine antibodies MM02 and MM05 and concentration gradient diluted filly human antibodies H88-93 were mixed and added as primary antibodies in a 96-well microplate coated with SEMG2. Murine monoclonal antibody bound to SEMG2 was measured using anti-mouse HRP secondary antibody. The blocking percentage is calculated according to the following formula:
Blocking percentage=[1−(A450 of experimental antibody group-Blank control)/(A450 of positive control antibody−A450 of empty control)]×100%

[3] = biological target: T3, binding between SEMG2 and CD27 (Homo sapiens, UniProt Q02383); experiment: Antibody blocking ELISA of SEMG2 binding to CD27-Fc; conditions: antibody 10 μg/mL
T3 sequence (Q02383 24-582): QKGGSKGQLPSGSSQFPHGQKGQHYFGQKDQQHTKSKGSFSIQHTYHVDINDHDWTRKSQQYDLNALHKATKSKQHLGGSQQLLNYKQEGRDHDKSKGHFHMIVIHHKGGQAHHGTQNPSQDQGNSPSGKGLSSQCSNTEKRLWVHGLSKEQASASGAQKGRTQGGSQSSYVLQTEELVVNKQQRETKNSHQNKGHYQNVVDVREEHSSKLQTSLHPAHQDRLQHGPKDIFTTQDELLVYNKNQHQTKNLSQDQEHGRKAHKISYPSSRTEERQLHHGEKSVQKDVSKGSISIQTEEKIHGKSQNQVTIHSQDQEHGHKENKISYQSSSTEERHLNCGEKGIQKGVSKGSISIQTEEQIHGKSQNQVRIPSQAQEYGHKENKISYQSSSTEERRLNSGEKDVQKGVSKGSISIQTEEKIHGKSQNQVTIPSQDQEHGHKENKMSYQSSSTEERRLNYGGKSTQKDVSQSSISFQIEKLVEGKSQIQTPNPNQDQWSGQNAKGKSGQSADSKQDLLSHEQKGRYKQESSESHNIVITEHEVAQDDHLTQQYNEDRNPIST
Source text: Because SEMG2 (497-509) sequence fragment is the key epitope of SEMG2 binding to CD27, and has a relatively short sequence, so SEMG2 (497-509) was used as an immunogen to prepare antibodies, which is theoretically easier to obtain functional antibody molecules with the function of blocking the binding between SEMG2 and CD27 than using full-length SEMG2 to prepare antibodies. For direct comparison, the differences in effective concentration of producing antibody by the two methods were verified using ELISA in the examples. Antibodies produced with SEMG2 (497-509) as immunogen and antibodies produced with full-length SEMG2 were added into the enzyme-linked immunosorbent assay (ELISA) reaction system at different concentrations (10^-2, 10^-1, 10^0, 10^1, 10^2, 10^3, 10^4 μg/mL), and the ELISA binding values were measured. The specific steps of enzyme-linked immunosorbent assay are as follows: (1) Dissolve SEMG2 protein antigen with 50 mM carbonate coating buffer (pH 9.6) to make the antigen concentration 10 μg/mL, and add into 96-well ELISA plate (purchased from Corning) at 100 μL/well, place at 4° C. overnight. (2) After discarding the coating solution on the next day, wash with PBST for three times, add 150 μL of 1% BSA to each well, and block for 2 hours at 37° C. […] (4) After washing for 5 times with PBST, add 100 of diluted HRP-labeled anti-human Fe secondary antibody, and incubate at 37° C. for 1 hour. (5) After washing with PBST for 5 times, 20 min after developing with chromogenic agent, the A450 absorption value was read using the microplate reader.
The SEMG2 (497-509) sequence was used to synthesize a polypeptide and coupled to a VLP carrier for immunization; HEK293 cells were used to express the full-length SEMG2 protein, and the purity was tested to reach 92%, and the binding activity of SEMG2 protein to CD27 was verified by ELISA. The protein and polypeptide antigens were used to immunize 10 mice respectively, and multiple immunizations were performed to enhance the effect: (1) The first immunization, 50 μg/mice of antigen, multiple subcutaneous injections together with Freund's complete adjuvant, with an interval of 3 weeks; (2) the second immunization; the same dosage and route as above, with incomplete Freund's adjuvant, and with an interval of 3 weeks; (3) the third immunization, the same dosage as above, without adjuvant, intraperitoneal injection with an interval of 3 weeks; (4) the booster immunization, the dose is 50 μg, intraperitoneal injection. 3 days after the last injection, blood was collected to measure its titer and the immune effect, and mice with higher titers were selected for hybridoma fusion screening. After subcloning, the binding of the monoclonal antibodies to the target antigens was detected by ELISA, and the function of different monoclonal antibodies in blocking the binding between SEMG2 and CD27 was measured by ELISA.
First, SEMG2(497-509) epitope-specific antibodies (for example, MM02, MM05) were compared with other epitope-specific antibodies (for example, HPA042767) for their function in blocking binding between SEMG2 and CD27 at different concentration ranges. […] The blocking function of different antibodies (irrelative mouse IgG, MM02, MM05, HPA042767) on binding between SEMG2 and CD27 was analyzed by the ELISA experiment as described in Example 11.
Further, the effects of different antibodies on the binding between SEMG2 and CD27 were compared under the condition of the same antibody concentration. In the ELISA, the same concentration (10 μg/mL) of antibody was used, and the strength of the binding between SEMG2 and CD27 was measured. […]

[4] = tested on: LOVO human colorectal cancer cells; experiment: Tumor cell killing by activated PBMC, caspase-3/7 apoptosis; format: cell-based; conditions: SEMG2-positive, co-culture with activated PBMC 10:1
Experimental: (§1) To test the above hypothesis, the effects of different epitope-specific antibodies on tumor cell killing by activated PBMC were compared. Specifically, A375 human melanoma and LOVO human colorectal cancer cells highly expressing SEMG2 were seeded in 96-well plate. Human peripheral blood mononuclear cells (PBMC; #70025, Stem Cell) were activated with 100 ng/mL of CD3 antibody, 100 ng/mL, of CD28 antibody, and 1.0 ng/mL of IL2 (#317303; #302913; #589102, BioLegend), respectively, and co-cultured with the above tumor cells at a ratio of 10:1 in presence of fluorescent caspase-3/7 substrate (#4440, Essen Bioscience). After 1.0 hours, cells were observed under fluorescence microscope.
(§2) To verify the above hypothesis, tumor cells with high SEMG2 expression (A375, LOVO) and SEMG2-negative tumor cells (DLD1, NCM460 and NCI-H1975) were selected. Different antibodies (irrelevant mouse IgG antibodies, MM02 or MM05 antibodies) were added during the PBMC killing experiments for the tumor cells.
(§3) To verify the effect of the human antibodies on the function of activated PBMC on tumor cell killing, A375 and LOVO cells were co-cultured with activated PBMC, and H88-93, H88-96, or H88-67 antibody was added at the same time, and the apoptosis ratio of tumor cells were detected.

[5] = tested on: A375 human melanoma cells; experiment: as above; format: cell-based; conditions: A375, SEMG2-positive, co-culture with activated PBMC 10:1
Experimental: as §1, §2, §3

B1: H88-93: fully human antibody from phage library against SEMG2(497-509), VH SEQ ID NO:55, VL SEQ ID NO:58 (antibody, V domains shown)
VH: QITLKESGPTLVKPTQTLTLTCNFSGFSLTTSGVGVAWIRQPPGKALEWLALIYWDDDQRYSPSLKSRLSVTKHTSKDQVVLTMTNVGPVDTATYYCAHLSYGPGWGYYMDVWGNGTMVTVSS
VL: EIVLTQSPGTLSLSPGERASLSCRASQSVRNNYLAWYQQKPGQAPRLLIFGASNRATGIPDTFSGSGSGTDFTLTISRLEPEDFAVYYCQQYGHSPITFGQGTRLEIK
modifications: UNSURE (1)..(123) VH; UNSURE (1)..(108) VL
For B1, the “binding to SEMG2(497-509) epitope” value [1] was “bind”, the “competition with MM02 and MM05 for binding to SEMG2” value [2] was “competes” and the “effect on the binding between SEMG2 and CD27” value [3] was “inhibited the binding”. For the same molecule, the “apoptosis tumor cell ratio / killing by activated PBMC” value [4] was “significantly promote the killing” and the “apoptosis tumor cell ratio / killing by activated PBMC” value [5] was “significantly promote the killing”.
